Assay results taken from paper PMC9482650, “Quantitative fragmentomics allow affinity mapping of interactomes” (Nature Communications, 2022).

T1: APBA3_1, O96018
T1 sequence (O96018 389-490, limits assumed, looked up): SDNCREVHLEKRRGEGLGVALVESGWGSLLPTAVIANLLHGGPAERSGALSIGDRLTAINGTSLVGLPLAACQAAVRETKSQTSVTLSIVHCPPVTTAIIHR

T2: GRIP1_7, Q9Y3R0
T2 sequence (Q9Y3R0 999-1096, limits assumed, looked up): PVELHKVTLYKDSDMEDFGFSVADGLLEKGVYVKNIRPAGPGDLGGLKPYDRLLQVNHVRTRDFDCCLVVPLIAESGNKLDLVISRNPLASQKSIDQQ

T3: PTPN13_1, Q12923
T3 sequence (Q12923 1088-1188, limits assumed, looked up): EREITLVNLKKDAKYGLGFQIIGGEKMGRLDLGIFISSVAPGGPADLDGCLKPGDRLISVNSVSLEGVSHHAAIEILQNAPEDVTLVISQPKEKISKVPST

T4: SYNJ2BP, P57105
T4 sequence (P57105 8-110, limits assumed, looked up): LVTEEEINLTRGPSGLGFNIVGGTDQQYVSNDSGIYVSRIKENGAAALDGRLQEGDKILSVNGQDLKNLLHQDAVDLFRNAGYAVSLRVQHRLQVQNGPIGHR

T5: APBA2_1, Q99767
T5 sequence (Q99767 563-664, limits assumed, looked up): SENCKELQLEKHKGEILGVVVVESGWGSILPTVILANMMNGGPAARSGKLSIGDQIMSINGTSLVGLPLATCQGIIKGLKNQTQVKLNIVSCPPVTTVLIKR

T6: TJP3_3, O95049
T6 sequence (O95049 375-456, limits assumed, looked up): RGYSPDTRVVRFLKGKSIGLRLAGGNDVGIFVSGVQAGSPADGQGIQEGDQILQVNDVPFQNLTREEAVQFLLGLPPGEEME

T7: MPDZ_12, O75970
T7 sequence (O75970 1857-1958, limits assumed, looked up): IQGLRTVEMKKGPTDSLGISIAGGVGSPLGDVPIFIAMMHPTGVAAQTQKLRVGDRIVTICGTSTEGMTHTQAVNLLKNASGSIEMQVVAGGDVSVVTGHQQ

T8: NHERF3_1, Q5T2W1
T8 sequence (Q5T2W1 4-100, limits assumed, looked up): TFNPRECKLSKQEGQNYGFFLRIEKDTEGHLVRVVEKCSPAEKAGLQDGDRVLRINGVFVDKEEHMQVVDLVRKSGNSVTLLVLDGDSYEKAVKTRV

T9: DFNB31_2, Q9P202
T9 sequence (Q9P202 274-371, limits assumed, looked up): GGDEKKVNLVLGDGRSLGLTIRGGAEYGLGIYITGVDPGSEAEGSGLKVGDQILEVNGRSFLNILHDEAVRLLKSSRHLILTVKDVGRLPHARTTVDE

T10: MPDZ_10, O75970
T10 sequence (O75970 1624-1722, limits assumed, looked up): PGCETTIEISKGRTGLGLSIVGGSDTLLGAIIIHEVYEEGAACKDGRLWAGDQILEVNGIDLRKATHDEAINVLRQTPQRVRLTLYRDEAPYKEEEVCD

T11: SNTA1, Q13424
T11 sequence (Q13424 82-180, limits assumed, looked up): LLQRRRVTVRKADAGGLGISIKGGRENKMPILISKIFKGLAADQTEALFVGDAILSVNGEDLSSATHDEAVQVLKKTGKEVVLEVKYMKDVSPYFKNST

T12: LRRC7, Q96NW7
T12 sequence (Q96NW7 1440-1537, limits assumed, looked up): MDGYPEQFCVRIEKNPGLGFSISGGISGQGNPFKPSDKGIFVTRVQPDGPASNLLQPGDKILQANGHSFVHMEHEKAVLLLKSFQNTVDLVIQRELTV

T13: RHPN1, Q8TCX5
T13 sequence (Q8TCX5 508-602, limits assumed, looked up): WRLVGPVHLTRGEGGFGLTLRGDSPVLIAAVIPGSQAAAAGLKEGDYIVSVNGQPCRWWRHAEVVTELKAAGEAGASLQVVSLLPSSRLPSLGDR

B1: FOXI1, Q12951 (peptide)
chain: VLYPREGTEV
B2: PTPN18, Q99952 (peptide)
chain: RDPPAEWTRV

Target: T1, APBA3_1, O96018
Experiment: holdup assay
Design: key: below the threshold = too weak to quantify, mostly under pKd 3.1 to 4
Conditions: plain residues with an end cap or a label only (N-terminal biotin on a linker: ado-ado)

| Binder | pKd |
| --- | --- |
| B1 | below the threshold |
| B2 | below the threshold |

Target: Inadl_5, Q8NI35
Experiment: holdup assay
Design: key: below the threshold = too weak to quantify, mostly under pKd 3.1 to 4
Conditions: plain residues with an end cap or a label only (N-terminal biotin on a linker: ado-ado)

Inadl_5, Q8NI35, sequence (Q8NI35 673-780): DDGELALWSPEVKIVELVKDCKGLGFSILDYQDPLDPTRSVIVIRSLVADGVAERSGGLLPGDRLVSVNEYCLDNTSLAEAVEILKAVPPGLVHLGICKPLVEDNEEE

| Binder | pKd |
| --- | --- |
| B1 | 3.83 |
| B2 | below the threshold |

Target: T2, GRIP1_7, Q9Y3R0
Experiment: holdup assay
Design: key: below the threshold = too weak to quantify, mostly under pKd 3.1 to 4
Conditions: plain residues with an end cap or a label only (N-terminal biotin on a linker: ado-ado)

| Binder | pKd |
| --- | --- |
| B1 | below the threshold |
| B2 | below the threshold |

Target: T3, PTPN13_1, Q12923
Experiment: holdup assay
Design: key: below the threshold = too weak to quantify, mostly under pKd 3.1 to 4
Conditions: plain residues with an end cap or a label only (N-terminal biotin on a linker: ado-ado)

| Binder | pKd |
| --- | --- |
| B1 | below the threshold |
| B2 | below the threshold |

Target: T4, SYNJ2BP, P57105
Experiment: holdup assay
Design: key: below the threshold = too weak to quantify, mostly under pKd 3.1 to 4
Conditions: plain residues with an end cap or a label only (N-terminal biotin on a linker: ado-ado)

| Binder | pKd |
| --- | --- |
| B1 | 5.23 |
| B2 | below the threshold |

Target: DLG1_1, Q12959
Experiment: holdup assay
Design: key: below the threshold = too weak to quantify, mostly under pKd 3.1 to 4
Conditions: plain residues with an end cap or a label only (N-terminal biotin on a linker: ado-ado)

| Binder | pKd |
| --- | --- |
| B1 | 4.4 |
| B2 | 4.09 |

Target: CASK, O14936
Experiment: holdup assay
Design: key: below the threshold = too weak to quantify, mostly under pKd 3.1 to 4
Conditions: plain residues with an end cap or a label only (N-terminal biotin on a linker: ado-ado)

CASK, O14936, sequence (O14936 487-570): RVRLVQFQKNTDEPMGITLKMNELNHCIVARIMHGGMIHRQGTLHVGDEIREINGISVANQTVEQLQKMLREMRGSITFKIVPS

| Binder | pKd |
| --- | --- |
| B1 | below the threshold |
| B2 | below the threshold |

Target: DLG1_3, Q12959
Experiment: holdup assay
Design: key: below the threshold = too weak to quantify, mostly under pKd 3.1 to 4
Conditions: plain residues with an end cap or a label only (N-terminal biotin on a linker: ado-ado)

| Binder | pKd |
| --- | --- |
| B1 | 3.75 |
| B2 | below the threshold |

Target: T5, APBA2_1, Q99767
Experiment: holdup assay
Design: key: below the threshold = too weak to quantify, mostly under pKd 3.1 to 4
Conditions: plain residues with an end cap or a label only (N-terminal biotin on a linker: ado-ado)

| Binder | pKd |
| --- | --- |
| B1 | below the threshold |
| B2 | below the threshold |

Target: T6, TJP3_3, O95049
Experiment: holdup assay
Design: key: below the threshold = too weak to quantify, mostly under pKd 3.1 to 4
Conditions: plain residues with an end cap or a label only (N-terminal biotin on a linker: ado-ado)

| Binder | pKd |
| --- | --- |
| B1 | 3.48 |
| B2 | below the threshold |

Target: T7, MPDZ_12, O75970
Experiment: holdup assay
Design: key: below the threshold = too weak to quantify, mostly under pKd 3.1 to 4
Conditions: plain residues with an end cap or a label only (N-terminal biotin on a linker: ado-ado)

| Binder | pKd |
| --- | --- |
| B1 | below the threshold |
| B2 | 3.66 |

Target: T8, NHERF3_1, Q5T2W1
Experiment: holdup assay
Design: key: below the threshold = too weak to quantify, mostly under pKd 3.1 to 4
Conditions: plain residues with an end cap or a label only (N-terminal biotin on a linker: ado-ado)

| Binder | pKd |
| --- | --- |
| B1 | 3.7 |
| B2 | 4.33 |

Target: LNX1_3, Q8TBB1
Experiment: holdup assay
Design: key: below the threshold = too weak to quantify, mostly under pKd 3.1 to 4
Conditions: plain residues with an end cap or a label only (N-terminal biotin on a linker: ado-ado)

LNX1_3, Q8TBB1, sequence (Q8TBB1 500-596): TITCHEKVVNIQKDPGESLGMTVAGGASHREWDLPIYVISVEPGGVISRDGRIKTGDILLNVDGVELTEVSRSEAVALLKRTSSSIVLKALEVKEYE

| Binder | pKd |
| --- | --- |
| B1 | below the threshold |
| B2 | 3.68 |

Target: T9, DFNB31_2, Q9P202
Experiment: holdup assay
Design: key: below the threshold = too weak to quantify, mostly under pKd 3.1 to 4
Conditions: plain residues with an end cap or a label only (N-terminal biotin on a linker: ado-ado)

| Binder | pKd |
| --- | --- |
| B1 | below the threshold |
| B2 | below the threshold |

Target: NHERF4_4, Q86UT5
Experiment: holdup assay
Design: key: below the threshold = too weak to quantify, mostly under pKd 3.1 to 4
Conditions: plain residues with an end cap or a label only (N-terminal biotin on a linker: ado-ado)

NHERF4_4, Q86UT5, sequence (Q86UT5 464-550): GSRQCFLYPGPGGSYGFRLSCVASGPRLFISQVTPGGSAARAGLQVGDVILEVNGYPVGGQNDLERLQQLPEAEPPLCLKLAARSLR

| Binder | pKd |
| --- | --- |
| B1 | below the threshold |
| B2 | below the threshold |

Target: GRIP2_7, Q9C0E4
Experiment: holdup assay
Design: key: below the threshold = too weak to quantify, mostly under pKd 3.1 to 4
Conditions: plain residues with an end cap or a label only (N-terminal biotin on a linker: ado-ado)

GRIP2_7, Q9C0E4, sequence (Q9C0E4 934-1023): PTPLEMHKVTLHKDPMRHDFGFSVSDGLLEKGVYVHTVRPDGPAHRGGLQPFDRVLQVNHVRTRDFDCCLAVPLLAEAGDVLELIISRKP

| Binder | pKd |
| --- | --- |
| B1 | below the threshold |
| B2 | below the threshold |

Target: PDZRN4_1, Q6ZMN7
Experiment: holdup assay
Design: key: below the threshold = too weak to quantify, mostly under pKd 3.1 to 4
Conditions: plain residues with an end cap or a label only (N-terminal biotin on a linker: ado-ado)

PDZRN4_1, Q6ZMN7, sequence (Q6ZMN7 213-318): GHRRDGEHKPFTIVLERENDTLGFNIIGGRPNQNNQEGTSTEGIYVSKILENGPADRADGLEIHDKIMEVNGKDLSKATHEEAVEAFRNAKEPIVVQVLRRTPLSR

| Binder | pKd |
| --- | --- |
| B1 | 4.25 |
| B2 | below the threshold |

Target: MAGI2_2, Q86UL8
Experiment: holdup assay
Design: key: below the threshold = too weak to quantify, mostly under pKd 3.1 to 4
Conditions: plain residues with an end cap or a label only (N-terminal biotin on a linker: ado-ado)

MAGI2_2, Q86UL8, sequence (Q86UL8 410-522): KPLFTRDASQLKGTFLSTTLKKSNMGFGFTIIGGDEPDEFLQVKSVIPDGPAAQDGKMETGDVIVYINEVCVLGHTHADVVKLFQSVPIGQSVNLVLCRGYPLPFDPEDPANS

| Binder | pKd |
| --- | --- |
| B1 | 3.74 |
| B2 | 4.04 |

Target: MAGI2_4, Q86UL8
Experiment: holdup assay
Design: key: below the threshold = too weak to quantify, mostly under pKd 3.1 to 4
Conditions: plain residues with an end cap or a label only (N-terminal biotin on a linker: ado-ado)

MAGI2_4, Q86UL8, sequence (Q86UL8 772-865): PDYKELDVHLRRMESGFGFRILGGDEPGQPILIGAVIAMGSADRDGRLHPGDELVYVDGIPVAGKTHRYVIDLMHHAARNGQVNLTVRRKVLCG

| Binder | pKd |
| --- | --- |
| B1 | 4.98 |
| B2 | 3.48 |

Target: T10, MPDZ_10, O75970
Experiment: holdup assay
Design: key: below the threshold = too weak to quantify, mostly under pKd 3.1 to 4
Conditions: plain residues with an end cap or a label only (N-terminal biotin on a linker: ado-ado)

| Binder | pKd |
| --- | --- |
| B1 | 3.49 |
| B2 | below the threshold |

Target: DLG1_2, Q12959
Experiment: holdup assay
Design: key: below the threshold = too weak to quantify, mostly under pKd 3.1 to 4
Conditions: plain residues with an end cap or a label only (N-terminal biotin on a linker: ado-ado)

| Binder | pKd |
| --- | --- |
| B1 | 4.84 |
| B2 | 4.48 |

Target: T11, SNTA1, Q13424
Experiment: holdup assay
Design: key: below the threshold = too weak to quantify, mostly under pKd 3.1 to 4
Conditions: plain residues with an end cap or a label only (N-terminal biotin on a linker: ado-ado)

| Binder | pKd |
| --- | --- |
| B1 | 4.02 |
| B2 | 4.39 |

Target: MAGI1_2, Q96QZ7
Experiment: holdup assay
Design: key: below the threshold = too weak to quantify, mostly under pKd 3.1 to 4
Conditions: plain residues with an end cap or a label only (N-terminal biotin on a linker: ado-ado)

MAGI1_2, Q96QZ7, sequence (Q96QZ7 456-580): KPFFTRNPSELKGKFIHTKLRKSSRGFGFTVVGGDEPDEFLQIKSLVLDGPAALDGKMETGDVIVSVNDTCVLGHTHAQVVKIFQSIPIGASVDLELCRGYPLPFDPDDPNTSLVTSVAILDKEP

| Binder | pKd |
| --- | --- |
| B1 | 3.95 |
| B2 | below the threshold |

Target: T12, LRRC7, Q96NW7
Experiment: holdup assay
Design: key: below the threshold = too weak to quantify, mostly under pKd 3.1 to 4
Conditions: plain residues with an end cap or a label only (N-terminal biotin on a linker: ado-ado)

| Binder | pKd |
| --- | --- |
| B1 | 3.49 |
| B2 | below the threshold |

Target: T13, RHPN1, Q8TCX5
Experiment: holdup assay
Design: key: below the threshold = too weak to quantify, mostly under pKd 3.1 to 4
Conditions: plain residues with an end cap or a label only (N-terminal biotin on a linker: ado-ado)

| Binder | pKd |
| --- | --- |
| B1 | 3.95 |
| B2 | 4.35 |
